From patent publication CN116507641A (XINSHI BIOPHARMACEUTICAL CO LTD, dated 2023)

T1: 人结合素-2 (recombinant human Nectin-2; ACROBiosystems PV2-H52E2) (human, UniProt Q92692 32-360)
T1 construct: extracellular domain
T1 sequence (looked up): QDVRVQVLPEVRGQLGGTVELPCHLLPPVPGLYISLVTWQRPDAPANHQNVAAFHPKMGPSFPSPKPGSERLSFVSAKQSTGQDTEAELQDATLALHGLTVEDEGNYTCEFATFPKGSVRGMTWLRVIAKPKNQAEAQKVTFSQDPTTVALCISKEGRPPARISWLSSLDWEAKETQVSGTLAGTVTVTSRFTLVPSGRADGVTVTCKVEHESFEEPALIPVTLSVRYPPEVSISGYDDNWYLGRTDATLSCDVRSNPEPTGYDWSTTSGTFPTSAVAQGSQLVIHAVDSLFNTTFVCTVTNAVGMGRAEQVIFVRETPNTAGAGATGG

T2: 人结合素-4变体 ΔV结构域 (human Nectin-4 lacking amino acids 32-147) (human, UniProt Q96NY8 148-510)
T2 construct: Transiently expressed on 293T cells; also called 缺少Ig样V型结构域的变体
T2 sequence: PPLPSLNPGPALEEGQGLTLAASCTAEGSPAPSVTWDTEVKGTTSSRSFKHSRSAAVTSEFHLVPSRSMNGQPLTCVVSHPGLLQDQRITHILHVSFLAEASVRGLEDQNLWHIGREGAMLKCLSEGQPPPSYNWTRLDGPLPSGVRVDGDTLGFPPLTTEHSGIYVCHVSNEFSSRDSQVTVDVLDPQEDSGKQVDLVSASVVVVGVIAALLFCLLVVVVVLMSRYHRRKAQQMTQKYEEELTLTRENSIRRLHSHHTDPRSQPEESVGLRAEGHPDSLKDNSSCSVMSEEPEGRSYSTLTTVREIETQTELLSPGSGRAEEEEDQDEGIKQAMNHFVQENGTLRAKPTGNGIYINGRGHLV

T3: 人重组结合素-4蛋白 (recombinant human Nectin-4, extracellular domain) (human, UniProt Q96NY8 32-349)
T3 construct: Protein coated on the ELISA plate; May be the same protein as the Nectin-4-His used in SPR; also called 重组结合素-4(细胞外结构域); 人结合素-4蛋白
T3 sequence: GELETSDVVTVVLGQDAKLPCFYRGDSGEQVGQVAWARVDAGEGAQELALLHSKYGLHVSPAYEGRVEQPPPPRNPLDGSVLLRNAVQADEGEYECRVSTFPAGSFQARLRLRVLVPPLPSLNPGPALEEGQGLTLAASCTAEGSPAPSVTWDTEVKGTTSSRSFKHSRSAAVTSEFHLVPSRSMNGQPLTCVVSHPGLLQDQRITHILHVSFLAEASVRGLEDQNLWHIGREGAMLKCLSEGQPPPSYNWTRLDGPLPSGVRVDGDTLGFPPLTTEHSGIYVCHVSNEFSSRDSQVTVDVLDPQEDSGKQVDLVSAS

T4: 食蟹猴结合素-4 (cynomolgus Nectin-4) (cynomolgus monkey, UniProt Q96NY8 32-510 (human entry))
T4 construct: Transiently expressed on 293T cells; also called XP_005541277.1
T4 chain: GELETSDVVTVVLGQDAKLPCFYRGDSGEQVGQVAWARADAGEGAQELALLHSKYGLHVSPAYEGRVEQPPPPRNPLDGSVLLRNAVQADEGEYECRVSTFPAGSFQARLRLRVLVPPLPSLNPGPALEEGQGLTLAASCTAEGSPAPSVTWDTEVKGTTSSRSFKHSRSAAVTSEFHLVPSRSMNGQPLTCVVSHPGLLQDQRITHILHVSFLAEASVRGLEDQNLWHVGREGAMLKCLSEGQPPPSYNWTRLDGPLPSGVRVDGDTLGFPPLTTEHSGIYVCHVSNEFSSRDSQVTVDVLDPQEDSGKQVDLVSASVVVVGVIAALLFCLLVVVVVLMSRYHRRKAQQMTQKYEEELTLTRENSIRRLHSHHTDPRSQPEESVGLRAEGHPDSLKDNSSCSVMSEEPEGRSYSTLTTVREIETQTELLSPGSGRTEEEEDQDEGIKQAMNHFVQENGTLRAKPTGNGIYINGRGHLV

T5: 大鼠结合素-4 (rat Nectin-4) (rat, UniProt Q8R007 31-508 (mouse entry))
T5 construct: Transiently expressed on 293T cells; also called NP_001102546.1
T5 chain: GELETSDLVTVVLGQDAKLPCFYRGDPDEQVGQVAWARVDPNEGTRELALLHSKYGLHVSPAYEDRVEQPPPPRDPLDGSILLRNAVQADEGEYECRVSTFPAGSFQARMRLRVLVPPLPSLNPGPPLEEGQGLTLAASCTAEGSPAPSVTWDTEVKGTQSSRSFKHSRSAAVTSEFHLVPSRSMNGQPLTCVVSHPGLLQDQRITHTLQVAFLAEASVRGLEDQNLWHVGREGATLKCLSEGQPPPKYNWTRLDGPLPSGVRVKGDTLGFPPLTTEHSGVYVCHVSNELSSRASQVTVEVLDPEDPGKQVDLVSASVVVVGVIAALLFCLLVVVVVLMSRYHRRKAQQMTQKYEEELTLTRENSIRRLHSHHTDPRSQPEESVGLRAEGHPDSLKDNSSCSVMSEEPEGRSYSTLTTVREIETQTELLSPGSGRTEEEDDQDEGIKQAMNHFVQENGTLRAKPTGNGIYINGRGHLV

T6: 小鼠结合素-4 (mouse Nectin-4) (mouse, UniProt Q8R007 31-508)
T6 construct: Transiently expressed on 293T cells; also called NP_082169.2
T6 sequence: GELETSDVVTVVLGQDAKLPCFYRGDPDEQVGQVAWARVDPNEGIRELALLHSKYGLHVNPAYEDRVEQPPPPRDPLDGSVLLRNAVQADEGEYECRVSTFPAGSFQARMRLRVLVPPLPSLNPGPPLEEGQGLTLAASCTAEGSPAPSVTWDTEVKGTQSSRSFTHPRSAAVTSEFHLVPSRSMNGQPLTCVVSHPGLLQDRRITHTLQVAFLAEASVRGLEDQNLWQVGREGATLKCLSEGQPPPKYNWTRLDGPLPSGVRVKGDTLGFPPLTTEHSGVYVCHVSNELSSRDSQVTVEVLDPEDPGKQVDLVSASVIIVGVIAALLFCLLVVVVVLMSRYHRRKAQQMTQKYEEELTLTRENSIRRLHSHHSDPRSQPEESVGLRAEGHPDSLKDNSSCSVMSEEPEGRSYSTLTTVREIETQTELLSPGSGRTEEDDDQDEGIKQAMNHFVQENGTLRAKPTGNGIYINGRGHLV

T7: 重组人结合素4-His蛋白 (recombinant human Nectin-4-His) (human, UniProt Q96NY8 32-349)
T7 construct: Analyte in SPR; also called 人重组结合素-4; not shown: His tag
T7 sequence: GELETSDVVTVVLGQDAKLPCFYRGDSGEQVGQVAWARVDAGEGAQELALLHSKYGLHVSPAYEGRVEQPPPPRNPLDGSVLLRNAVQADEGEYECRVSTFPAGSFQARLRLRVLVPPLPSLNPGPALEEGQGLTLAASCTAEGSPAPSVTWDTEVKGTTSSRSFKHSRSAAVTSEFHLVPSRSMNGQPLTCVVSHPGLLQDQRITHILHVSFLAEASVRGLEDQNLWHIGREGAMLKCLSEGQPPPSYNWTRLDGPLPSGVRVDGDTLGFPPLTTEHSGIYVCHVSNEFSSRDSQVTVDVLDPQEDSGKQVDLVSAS


What was measured:
[1] = biological target: T1, 人结合素-2 (recombinant human Nectin-2; …); assay: ELISA or Gator binding assay
[2] = biological target: T2, 人结合素-4变体 ΔV结构域 (human Nectin-4 lacking …); assay: flow cytometry on transiently transfected 293T cells
[3] = biological target: T3, 人重组结合素-4蛋白 (recombinant human Nectin-4, …); assay: ELISA, recombinant human Nectin-4 coated on plate
[4] = biological target: T4, 食蟹猴结合素-4 (cynomolgus Nectin-4); assay: flow cytometry on transiently transfected 293T cells; +++ = EC50 below 5nM
[5] = biological target: T5, 大鼠结合素-4 (rat Nectin-4); assay: as above
[6] = biological target: T6, 小鼠结合素-4 (mouse Nectin-4); assay: flow cytometry on transiently transfected 293T cells; ++ = EC50 5nM to 25nM
[7] = biological target: T7, 重组人结合素4-His蛋白 (recombinant human …); assay: SPR (BIAcore 3000), antibody captured by anti-human IgG on CM5, Nectin-4-His as analyte, 1:1 binding with mass transfer
[8] = biological target: T5, 大鼠结合素-4 (rat Nectin-4); assay: flow cytometry on transiently transfected 293T cells; ++ = EC50 5nM to 25nM
[9] = biological target: T5, 大鼠结合素-4 (rat Nectin-4); assay: flow cytometry on transiently transfected 293T cells; + = EC50 25nM to 133nM
[10] = biological target: T6, 小鼠结合素-4 (mouse Nectin-4); assay: as above

| Binder | binding result [1] | binding result [2] | EC50 [3] [nM] | EC50 [4] [nM] | EC50 [5] [nM] | EC50 [6] [nM] | Kd [7] [nM] | EC50 [8] [nM] | EC50 [9] [nM] | EC50 [10] [nM] |
| --- | --- | --- | --- | --- | --- | --- | --- | --- | --- | --- |
| N4_mAb 6 (antibody, V domains shown, Murine variable regions) VH: QVQLQQSGPELVKPGASVRISCKASGYTFTTYYIHWVKQRPGQGLEWIGWIYPGNVNTKYTENFKDKATLTADKSSSTAYMQLSSLTSEDSAVYFCARGLYYFDFWGQGTTLTVSS VL: SIVMTQTPKFLLVSAGDRVTITCKASQSVNNDVAWYQQKPGQSPKLLIYYASNRDTGVPDRFTGSGFGTDFTFTISSVQAEDLAVYFCQQDYSSPYTFGGGTKLEIK | no binding | no binding (tested: 最高测试的抗体浓度(133nM)) | 0.03 | < 5 | < 5 | 5 to 25 | 0.392 |  |  |  |
| N4_mAb 7 (antibody, V domains shown, Murine variable regions) VH: QVQLQQSGPELVKPGASVKMSCKASGYTFTTYYIHWVKQRPGQGLEWIGWIYPGNAGIKSNEKFKGKTTLTADKSSSTAYMLLSSLTSEDSAIYFCARGVYFFDYWGQGTTLTVSS VL: SIVMTQTPKFLLVSAGDRVTITCKASQSVNNDVSWFQQKPGQSPKLLIYYASNRYTGVPDRFSGSGYGTDFTFTITTVQAEDLAVYFCQQDYSSPYTFGGGTKLEIK | no binding | no binding (tested: 最高测试的抗体浓度(133nM)) | 0.04 | < 5 | < 5 | 5 to 25 | 0.39 |  |  |  |
| N4_mAb 8 (antibody, V domains shown, Murine variable regions) VH: QVQLQQSGPVLVKPGASVRISCKASGYTFTSYYIHWVKQRPGQGLEWIGWIYPGNVNTKYNENFRDKATLTADKSSSTSYMQLSSLTSEDSAVYFCARGIYYFDYWGQGTTLTVSS VL: IIVMTQTPKFLLVSAGDRVTITCKASQSVNNDVAWYQEKPGQSPKLLIYYASNRDTGVPDRFTGSGYGTDFTFTISTVQAEDLAVYFCHQDYSSPFTFGSGTKLEIK | no binding | no binding (tested: 最高测试的抗体浓度(133nM)) | 0.14 | < 5 | < 5 | 5 to 25 | 0.375 |  |  |  |
| N4_mAb 1 (antibody, V domains shown) VH: QVQLKQSGPGLVQPSQSLSITCTVSGFSLTNYGVNWVRQPPGKGLEWLGVIWSGGSTDYNAAFISRLSISKDISKSQVFFKMNSLQADDTAKYYCAREGYDGYAMDYWGQGTSVTVSS VL: DIQMTQSPASLSVSVGETVTITCRASENIFSSLAWYQQKQGKSPQLLVYGATNLADGVPSRFSGSGSGTQYSLKINSLQSEDFGTYWCQHFWGNPWTFGGGTKLEIK |  |  |  | < 5 |  |  |  |  |  |  |
| N4_mAb 2 (antibody, V domains shown) VH: QVQLKQSGPNLVQPSQSLSITCTVSGFSLTTYGAHWVRQSPGKGLEWLGVIWRGGSTDYNAAFMSRLSITKDNSKSQVFFKMNSLQADDTAIYYCAKIGYDGYAMDNWGQGTSVTVSS VL: DFQVTQSPASLSASVGETVTITCRTSENIHNYLAWYQQKQGKSPQLLVYNAKTLADGVPSRFSGSGSGTQYSLKINSLQPEDFGTYYCQHFWSSPWTFGGGTKLEIK |  |  |  | < 5 |  | 5 to 25 |  | 5 to 25 |  |  |
| N4_mAb 3 (antibody, V domains shown) VH: EVQLQQSGAELVKPGASVKLSCTVSGFNIKDTYMHWVKQRPEQGLEWIGRIDPANGNTKYDPKFQGKATIIADKASNTAYLQLSSLTSEDAAVYYCAHYYGSSYFAMDCWGQGTSVTVSS VL: DIVMTQSHKFMSTSVGDRVSITCKASQDVSTAVAWYQQKPGQSPKLLIYWASTRHTGVPDRFTGSGSGTDYTLTISSVQTEDLALYYCQQHYSTPLTFGAGTKLELK |  |  |  | < 5 |  |  |  |  | 25 to 133 |  |
| N4_mAb 4 (antibody, V domains shown) VH: DVQLQESGPDLVKPSQSLSLTCTVTGYSITSAYNWHWIRQFPGNKLEWMGYIHYSGRTNYNPSLKSRISITRDTSKNQFFLQLNSLTTEDTATYYCARWITTATGWYLDVWGAGTTVTVSS VL: not shown |  |  |  | < 5 |  |  |  |  | 25 to 133 |  |
| N4_mAb 5 (antibody, V domains shown) VH: EVQLQQSGPDLVKPGASVKISCKASGYSFTGHYMHWVKQSHGKSLEWIGRVNPNNGGSSYNQKFKDKAILTVDKSSTTAYMELRSLTSEDSAVYYCARDPLGGSYGFAYWGQGTLVTVSA VL: DIVLTQSPASLAVSLGQRATISCRASQSVTTSSYSYMHWYQQKPGQPPKLLIKYASNLESGVPARFSGSGSGTDFTLNIHPVEEEDTATYYCQHSWEIPYTFGGGTKLEMK |  |  |  | < 5 | < 5 |  |  |  |  | 25 to 133 |
